In patent publication US20200069764A1 (Pfizer, published 2020):

Biological target: EDB+ FN on WI38-VA13 cells (human, UniProt P02751 32-2477)
Assay: cell-based or functional assay

EDB+ FN on WI38-VA13 cells, sequence (P02751 32-2477): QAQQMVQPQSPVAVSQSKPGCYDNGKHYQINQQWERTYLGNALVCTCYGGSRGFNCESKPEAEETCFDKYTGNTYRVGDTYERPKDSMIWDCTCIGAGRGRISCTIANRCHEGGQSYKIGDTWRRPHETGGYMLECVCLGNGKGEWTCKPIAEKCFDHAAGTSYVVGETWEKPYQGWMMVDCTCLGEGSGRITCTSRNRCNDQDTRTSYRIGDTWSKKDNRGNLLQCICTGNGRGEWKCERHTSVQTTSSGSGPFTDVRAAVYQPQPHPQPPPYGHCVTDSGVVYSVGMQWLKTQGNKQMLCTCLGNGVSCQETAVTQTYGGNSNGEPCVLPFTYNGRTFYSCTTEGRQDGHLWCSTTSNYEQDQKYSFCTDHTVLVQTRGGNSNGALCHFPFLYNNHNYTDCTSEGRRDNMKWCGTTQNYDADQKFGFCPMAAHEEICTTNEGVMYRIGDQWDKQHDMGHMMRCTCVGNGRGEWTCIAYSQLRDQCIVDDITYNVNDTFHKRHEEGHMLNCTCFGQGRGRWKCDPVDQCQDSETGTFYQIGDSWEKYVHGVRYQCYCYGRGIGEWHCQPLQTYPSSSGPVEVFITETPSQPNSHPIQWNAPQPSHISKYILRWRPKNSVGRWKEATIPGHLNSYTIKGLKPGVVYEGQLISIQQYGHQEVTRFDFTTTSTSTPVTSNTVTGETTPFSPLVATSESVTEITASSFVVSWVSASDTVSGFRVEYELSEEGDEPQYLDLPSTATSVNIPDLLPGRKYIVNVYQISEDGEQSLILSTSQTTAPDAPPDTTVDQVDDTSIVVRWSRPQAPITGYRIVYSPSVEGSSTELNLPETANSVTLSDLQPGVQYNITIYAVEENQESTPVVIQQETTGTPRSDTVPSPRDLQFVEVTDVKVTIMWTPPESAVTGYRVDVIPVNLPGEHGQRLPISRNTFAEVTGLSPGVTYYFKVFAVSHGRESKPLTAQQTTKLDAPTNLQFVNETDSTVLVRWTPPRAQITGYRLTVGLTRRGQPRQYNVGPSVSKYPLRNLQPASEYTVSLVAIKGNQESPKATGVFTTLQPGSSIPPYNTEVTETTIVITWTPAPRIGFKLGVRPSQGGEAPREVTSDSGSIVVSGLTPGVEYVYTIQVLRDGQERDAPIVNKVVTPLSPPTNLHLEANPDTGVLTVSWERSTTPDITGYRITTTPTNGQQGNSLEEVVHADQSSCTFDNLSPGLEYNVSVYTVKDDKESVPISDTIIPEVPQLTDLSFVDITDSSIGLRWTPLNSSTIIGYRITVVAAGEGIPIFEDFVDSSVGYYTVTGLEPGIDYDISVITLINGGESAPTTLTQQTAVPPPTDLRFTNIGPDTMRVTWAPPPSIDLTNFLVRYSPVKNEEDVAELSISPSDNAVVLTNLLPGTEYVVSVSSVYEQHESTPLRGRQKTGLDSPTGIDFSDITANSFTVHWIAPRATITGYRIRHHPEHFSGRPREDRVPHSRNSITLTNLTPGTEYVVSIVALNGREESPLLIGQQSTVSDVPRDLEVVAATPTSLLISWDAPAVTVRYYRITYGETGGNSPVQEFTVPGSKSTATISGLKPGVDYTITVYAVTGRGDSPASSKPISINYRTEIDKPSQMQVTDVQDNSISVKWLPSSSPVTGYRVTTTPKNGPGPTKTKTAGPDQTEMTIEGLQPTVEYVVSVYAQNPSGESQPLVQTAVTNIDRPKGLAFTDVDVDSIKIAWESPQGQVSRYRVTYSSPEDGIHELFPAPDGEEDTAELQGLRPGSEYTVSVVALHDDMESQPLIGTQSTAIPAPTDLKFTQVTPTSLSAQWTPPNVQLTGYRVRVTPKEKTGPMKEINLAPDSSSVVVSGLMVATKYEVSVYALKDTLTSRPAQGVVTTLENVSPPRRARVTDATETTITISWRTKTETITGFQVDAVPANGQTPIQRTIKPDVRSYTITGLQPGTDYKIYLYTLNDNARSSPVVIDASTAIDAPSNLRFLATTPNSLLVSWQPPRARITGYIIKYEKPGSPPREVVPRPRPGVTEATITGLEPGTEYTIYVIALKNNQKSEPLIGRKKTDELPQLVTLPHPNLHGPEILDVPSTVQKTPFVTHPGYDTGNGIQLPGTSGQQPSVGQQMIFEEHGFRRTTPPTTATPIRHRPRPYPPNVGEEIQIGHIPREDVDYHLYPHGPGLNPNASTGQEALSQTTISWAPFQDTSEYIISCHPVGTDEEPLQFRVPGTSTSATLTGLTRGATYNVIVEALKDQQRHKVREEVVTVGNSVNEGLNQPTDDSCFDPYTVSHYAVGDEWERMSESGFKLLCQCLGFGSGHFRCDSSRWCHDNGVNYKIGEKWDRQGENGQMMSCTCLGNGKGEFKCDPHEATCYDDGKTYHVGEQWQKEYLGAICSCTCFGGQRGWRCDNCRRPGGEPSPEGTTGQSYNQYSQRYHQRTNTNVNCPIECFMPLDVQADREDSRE

| Binder | Avg IC50 (ng/ml of antibody), in vitro cytotoxicity on WI38-VA13 cells [ng/mL] |
| --- | --- |
| EDB-L19-diS-DM1 (antibody, human IgG1, kappa) heavy: not shown light: EIVLTQSPGTLSLSPGERATLSCRASQSVSSSFLAWYQQKPGQAPRLLIYYASSRATGIPDRFSGSGSGTDFTLTISRLEPEDFAVYYCQQTGRIPPTFGQGTKVEIKRTVAAPSVFIFPPSDEQLKSGTASVVCLLNNFYPREAKVQWKVDNALQSGNSQESVTEQDSKDSTYSLSSTLTLSKADYEKHKVYACEVTHQGLSSPVTKSFNRGEC | 268 |
| EDB-L19-diS-4574 (antibody, human IgG1, kappa) heavy: not shown light: EIVLTQSPGTLSLSPGERATLSCRASQSVSSSFLAWYQQKPGQAPRLLIYYASSRATGIPDRFSGSGSGTDFTLTISRLEPEDFAVYYCQQTGRIPPTFGQGTKVEIKRTVAAPSVFIFPPSDEQLKSGTASVVCLLNNFYPREAKVQWKVDNALQSGNSQESVTEQDSKDSTYSLSSTLTLSKADYEKHKVYACEVTHQGLSSPVTKSFNRGEC | 487 |
| EDB-L19-diS-C2OCO-1569 (antibody, human IgG1, kappa) heavy: not shown light: EIVLTQSPGTLSLSPGERATLSCRASQSVSSSFLAWYQQKPGQAPRLLIYYASSRATGIPDRFSGSGSGTDFTLTISRLEPEDFAVYYCQQTGRIPPTFGQGTKVEIKRTVAAPSVFIFPPSDEQLKSGTASVVCLLNNFYPREAKVQWKVDNALQSGNSQESVTEQDSKDSTYSLSSTLTLSKADYEKHKVYACEVTHQGLSSPVTKSFNRGEC | 21 |
